The target in one test is HLA-A*30:01. The test can be described thus: IEDB peptide-MHC binding, purified MHC/competitive/radioactivity; filed as Kd, often an IC50 or EC50 that approximates it; ≥ and ≤ were set here for values at or beyond the usual limits of such assays.
Another test addresses HLA-A*32:01. The description is as above.
The target in another test is HLA-B*08:01. Described as above.
In test [1] the target is HLA-B*15:01. The description is as above.
For the next test, the target named is HLA-B*15:03. The description is as above.
A further test concerns the target HLA-A*02:01. The test is described as follows: IEDB peptide-MHC binding, purified MHC/competitive/fluorescence; filed as Kd, often an IC50 or EC50 that approximates it; ≥ and ≤ were set here for values at or beyond the usual limits of such assays.
In a further test the target is HLA-A*02:03. The test is described as above.
The target of the next test is HLA-A*02:11. The test is described as above.
A further test has as its target HLA-A*02:12. Described as above.
The target in another test is HLA-A*02:16. Described as above.
A further test addresses HLA-A*02:19. The description is as above.
For a further test, the target named is HLA-A*03:01. Described as above.
Test [2] deals with HLA-A*24:03. The description is as above.
The target in the next test is HLA-A*26:01. The description is as above.
A further test has as its target HLA-A*29:02. Described as above.
The next test deals with HLA-A*69:01. Described as above.
Test [3] has as its target HLA-B*15:01. The test is described as above.
The target in a further test is HLA-B*15:17. The description is as above.
The target of another test is HLA-B*18:01. The description is as above.
Another test deals with HLA-B*27:03. The description is as above.
The next test deals with HLA-B*39:01. The description is as above.
Another test concerns the target HLA-B*46:01. The description is as above.
In a further test the target is HLA-B*51:01. The test is described as above.
The target of the next test is HLA-B*57:01. Described as above.
A further test has as its target HLA-A*68:02. The test is described as above.
For the next test, the target named is HLA-A*23:01. The test can be described thus: IEDB peptide-MHC binding, purified MHC/direct/fluorescence; filed as Kd, often an IC50 or EC50 that approximates it; ≥ and ≤ were set here for values at or beyond the usual limits of such assays. Conditions: source organism: Entamoeba histolytica HM-1:IMSS.
In test [4] the target is HLA-A*24:03. The test is described as above. Conditions: source organism: Entamoeba histolytica HM-1:IMSS.
The mark [5] stands for this setting: source organism: Vaccinia virus WR.
Where [6] appears, read: source organism: Cryptosporidium parvum Iowa II.
The mark [7] stands for this setting: source organism: Escherichia coli F11.
The mark [8] stands for this setting: source organism: Vaccinia virus Copenhagen.
Setting [9] is: source organism: Vibrio cholerae 2740-80.
The mark [10] stands for this setting: source organism: Brucella suis 1330.
Setting [11] is: source organism: Vibrio vulnificus YJ016.

The Kd is the equilibrium constant for the complex coming apart. Consider AILSLNLRI, for which the Kd with HLA-A*30:01 (setting [5]) was 0.155 µM; with HLA-A*32:01 (setting [5]), 0.151 µM; with HLA-B*08:01 (setting [5]), 1.28 µM; with HLA-B*15:01 [1] (setting [5]), 0.142 µM; in the test with HLA-B*15:03 (setting [5]) it was 237 nM.

Consider DLAQDPMLI, for which the Kd with HLA-A*02:01 (setting [6]) was at least 20 µM; with HLA-A*02:03 (setting [6]), at least 20 µM; with HLA-A*02:11 (setting [6]) it was at least 20 µM; in the test with HLA-A*02:12 (setting [6]), at least 20 µM; with HLA-A*02:16 (setting [6]), 0.397 µM; with HLA-A*02:19 (setting [6]) it was at least 20 µM. The Kd with HLA-A*03:01 (setting [6]), with HLA-A*24:03 [2] (setting [6]), with HLA-A*26:01 (setting [6]), with HLA-A*29:02 (setting [6]), with HLA-A*69:01 (setting [6]) and with HLA-B*15:01 [3] (setting [6]) was at least 20 µM in each case. Moreover, the Kd with HLA-B*15:17 (setting [6]), with HLA-B*18:01 (setting [6]), with HLA-B*27:03 (setting [6]), in the test with HLA-B*39:01 (setting [6]), in the test with HLA-B*46:01 (setting [6]) and with HLA-B*51:01 (setting [6]) was at least 20 µM each time. This sequence displayed a Kd with HLA-B*57:01 (setting [6]) of at least 20 µM.

For FLSEPYSYF, the Kd in the test with HLA-B*15:03 (setting [5]) amounted to 29.3 nM.

For the sequence FMAYTTSHI, the Kd is 0.132 µM in the test with HLA-B*15:01 [1] (setting [5]) and 7.58 nM with HLA-B*15:03 (setting [5]).

Take GSGDDTWLI: the Kd is at least 20 µM with HLA-A*02:01 (setting [7]); at least 20 µM with HLA-A*02:03 (setting [7]); at least 20 µM with HLA-A*02:11 (setting [7]); 1.27 µM with HLA-A*02:12 (setting [7]); at least 20 µM in the test with HLA-A*02:16 (setting [7]); at least 20 µM in the test with HLA-A*02:19 (setting [7]). In addition, the Kd in the test with HLA-A*03:01 (setting [7]), in the test with HLA-A*24:03 [2] (setting [7]), with HLA-A*26:01 (setting [7]), with HLA-A*29:02 (setting [7]), with HLA-A*68:02 (setting [7]) and with HLA-A*69:01 (setting [7]) was at least 20 µM throughout. In addition, the Kd with HLA-B*15:01 [3] (setting [7]), with HLA-B*15:17 (setting [7]), in the test with HLA-B*18:01 (setting [7]), in the test with HLA-B*27:03 (setting [7]), with HLA-B*39:01 (setting [7]) and with HLA-B*46:01 (setting [7]) was at least 20 µM in each case. The Kd with HLA-B*51:01 (setting [7]) and in the test with HLA-B*57:01 (setting [7]) was at least 20 µM throughout.

Take ISVLTGSSI: the Kd with HLA-A*30:01 (setting [8]) is 3.22 µM; with HLA-A*32:01 (setting [8]) it was 3.91 µM; in the test with HLA-B*08:01 (setting [8]) it was at least 20.6 µM; in the test with HLA-B*15:01 [1] (setting [8]), 0.0343 µM; with HLA-B*15:03 (setting [8]), 24.9 nM.

Consider KKYNNDKSF, for which the Kd was at least 20.3 µM with HLA-A*30:01 (setting [5]); 11.4 µM in the test with HLA-A*32:01 (setting [5]); 3.82 µM with HLA-B*08:01 (setting [5]); 6.62 µM with HLA-B*15:01 [1] (setting [5]); 0.0778 nM in the test with HLA-B*15:03 (setting [5]).

With KVKDLFNTK, the Kd was 0.0377 µM with HLA-A*30:01 (setting [5]); 2.48 µM in the test with HLA-A*32:01 (setting [5]); at least 42 µM with HLA-B*08:01 (setting [5]); 4.46 µM with HLA-B*15:01 [1] (setting [5]); at least 22100 nM with HLA-B*15:03 (setting [5]).

As for LATFTVNIF, the Kd with HLA-B*15:03 (setting [5]) turned out to be 35.1 nM.

On to LAVFPAMFW, for which the Kd with HLA-A*02:01 (setting [9]), with HLA-A*02:03 (setting [9]), in the test with HLA-A*02:11 (setting [9]), with HLA-A*02:12 (setting [9]), with HLA-A*02:16 (setting [9]) and in the test with HLA-A*02:19 (setting [9]) was at least 20 µM in each case. The Kd in the test with HLA-A*03:01 (setting [9]), in the test with HLA-A*26:01 (setting [9]), with HLA-A*68:02 (setting [9]), with HLA-A*69:01 (setting [9]), with HLA-B*15:01 [3] (setting [9]) and with HLA-B*18:01 (setting [9]) was at least 20 µM each time. The Kd with HLA-B*27:03 (setting [9]) is at least 20 µM; with HLA-B*39:01 (setting [9]), at least 20 µM; with HLA-B*46:01 (setting [9]), at least 20 µM; with HLA-B*57:01 (setting [9]) it was 0.0379 µM.

On to LLSLEIVFF, for which the Kd stood at 0.142 µM in the test with HLA-B*15:01 [1] (setting [8]) and 2110 nM with HLA-B*15:03 (setting [8]).

Regarding QYQNEINYL, the values for the Kd with HLA-A*23:01 and in the test with HLA-A*24:03 [4] were 0.002 µM and 0.003 µM, respectively.

As for SIRSMSRSI, the dissociation constant Kd in the test with HLA-A*30:01 (setting [8]) amounted to 0.132 µM; with HLA-A*32:01 (setting [8]), 1.36 µM; with HLA-B*08:01 (setting [8]), 0.0772 µM; with HLA-B*15:01 [1] (setting [8]) it was 0.362 µM; with HLA-B*15:03 (setting [8]) it was 10300 nM.

For the sequence SKFVYVSVM, the Kd in the test with HLA-B*15:03 (setting [5]) came to 1.63 nM.

Consider TEWPQLKVA, for which the Kd in the test with HLA-A*02:01 (setting [10]), in the test with HLA-A*02:03 (setting [10]), with HLA-A*02:11 (setting [10]), in the test with HLA-A*02:12 (setting [10]), in the test with HLA-A*02:16 (setting [10]) and with HLA-A*02:19 (setting [10]) was at least 20 µM each time. Besides, the Kd with HLA-A*03:01 (setting [10]), with HLA-A*26:01 (setting [10]), with HLA-A*29:02 (setting [10]), with HLA-A*68:02 (setting [10]), in the test with HLA-A*69:01 (setting [10]) and with HLA-B*15:01 [3] (setting [10]) was at least 20 µM each time. Moreover, the Kd is at least 20 µM with HLA-B*15:17 (setting [10]); 0.0336 µM with HLA-B*18:01 (setting [10]); at least 20 µM with HLA-B*27:03 (setting [10]); at least 20 µM with HLA-B*39:01 (setting [10]); at least 20 µM in the test with HLA-B*46:01 (setting [10]); at least 20 µM in the test with HLA-B*51:01 (setting [10]). In the test with HLA-B*57:01 (setting [10]), this sequence gave a Kd of at least 20 µM.

Take VTFGARASF: the Kd with HLA-A*02:01 (setting [11]), with HLA-A*02:03 (setting [11]), in the test with HLA-A*02:11 (setting [11]), in the test with HLA-A*02:12 (setting [11]), with HLA-A*02:16 (setting [11]) and in the test with HLA-A*02:19 (setting [11]) was at least 20 µM in each case. Moreover, the Kd with HLA-A*03:01 (setting [11]) is at least 20 µM; in the test with HLA-A*26:01 (setting [11]), at least 20 µM; with HLA-A*69:01 (setting [11]), at least 20 µM; with HLA-B*27:03 (setting [11]) it was at least 20 µM; with HLA-B*39:01 (setting [11]), at least 20 µM; with HLA-B*57:01 (setting [11]) it was 0.0974 µM.

Consider WSTSFTNIF, for which, in the test with HLA-B*15:03 (setting [8]), the Kd turned out to be 5.88 nM.

The values above are taken from the Immune Epitope Database (IEDB).
